Data on eight molecules can be found in patent publication US20230265151A1, “GIP/GLP1 CO-AGONIST COMPOUNDS” (priority 2020, published 2023).

*1 amine or outer side, *2 acyl side, *3 side chain or, on linkers, in order; H or OH if unused. Where no end group is shown, it is not given here. Side-chain parts run from the residue outwards. [ ]: non-standard residue; d: D form. The star is where a group is joined. Decanoyl(10-(4-HOOC-PhO)) = O=C(O)c1ccc(OCCCCCCCCCC(=O)*)cc1; αMePhe(2-F) = C[C@](N)(Cc1ccccc1F)C(=O)O; γGlu = O=C(O)[C@H](CCC(=O)[*:2])N[*:1]; αMeY = C[C@](N)(Cc1ccc(O)cc1)C(=O)O; αMeL = CC(C)C[C@](C)(N)C(=O)O; Orn = NCCC[C@H](N)C(=O)O; AEEA = NCCOCCOCC(=O)O; Om = not defined here; Aib = CC(C)(N)C(=O)O

Targets include hGLP-1R (Homo sapiens, UniProt P43220); human glucagon receptor (human, UniProt P47871 26-477); human GLP-1 receptor (human, UniProt P43220 24-463).
Common to all, as to test: cell-based or functional assay
Assay [1] addresses T1, human GIP receptor (human) (UniProt P48546).
T1 sequence (looked up): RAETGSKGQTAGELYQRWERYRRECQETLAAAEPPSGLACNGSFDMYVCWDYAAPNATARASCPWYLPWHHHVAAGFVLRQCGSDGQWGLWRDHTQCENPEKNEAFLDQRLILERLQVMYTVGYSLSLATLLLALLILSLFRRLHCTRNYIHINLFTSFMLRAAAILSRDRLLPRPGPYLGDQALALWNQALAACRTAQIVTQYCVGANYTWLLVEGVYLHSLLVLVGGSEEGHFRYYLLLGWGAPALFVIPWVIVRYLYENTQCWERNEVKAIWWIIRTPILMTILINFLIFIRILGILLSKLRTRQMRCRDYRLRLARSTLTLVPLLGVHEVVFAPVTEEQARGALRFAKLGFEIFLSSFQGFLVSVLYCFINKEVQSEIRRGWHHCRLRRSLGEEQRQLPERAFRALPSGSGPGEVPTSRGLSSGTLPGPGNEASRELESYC

The target of assay [2] is human glucagon receptor (human) (UniProt P47871).
In another assay the target is T2, human GIP receptor (human, UniProt P48546 22-466).
T2 sequence (looked up): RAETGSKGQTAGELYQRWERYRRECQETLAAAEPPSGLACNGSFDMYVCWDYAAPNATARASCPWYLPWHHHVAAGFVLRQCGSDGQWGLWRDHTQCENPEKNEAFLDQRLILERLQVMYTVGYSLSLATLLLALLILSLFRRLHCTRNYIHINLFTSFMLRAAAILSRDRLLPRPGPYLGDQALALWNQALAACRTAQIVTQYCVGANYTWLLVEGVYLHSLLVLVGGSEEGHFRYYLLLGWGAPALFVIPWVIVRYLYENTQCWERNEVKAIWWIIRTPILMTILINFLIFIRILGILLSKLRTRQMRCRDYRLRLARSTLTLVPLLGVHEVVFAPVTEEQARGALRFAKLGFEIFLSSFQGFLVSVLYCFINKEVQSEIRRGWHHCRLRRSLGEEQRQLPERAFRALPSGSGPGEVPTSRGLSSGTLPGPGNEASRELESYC

human glucagon receptor, sequence (P47871 26-477): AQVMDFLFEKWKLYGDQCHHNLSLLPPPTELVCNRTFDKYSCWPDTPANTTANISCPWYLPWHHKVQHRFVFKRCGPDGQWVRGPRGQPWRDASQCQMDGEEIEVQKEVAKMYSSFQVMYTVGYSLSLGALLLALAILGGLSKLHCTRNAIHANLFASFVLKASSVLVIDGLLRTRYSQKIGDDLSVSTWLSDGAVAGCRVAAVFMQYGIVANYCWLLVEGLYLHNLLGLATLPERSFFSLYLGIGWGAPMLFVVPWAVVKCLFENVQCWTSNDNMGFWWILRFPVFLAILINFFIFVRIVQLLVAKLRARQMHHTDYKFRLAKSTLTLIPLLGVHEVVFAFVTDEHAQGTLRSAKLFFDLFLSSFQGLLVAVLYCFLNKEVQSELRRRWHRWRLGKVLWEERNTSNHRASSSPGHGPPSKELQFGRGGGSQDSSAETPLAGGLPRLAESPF

For the molecule Y[Aib]EGT[αMePhe(2-F)]TSDV[Aib]I[αMeL]LD[Orn]K([AEEA-γGlu-Decanoyl(10-(4-HOOC-PhO))])AQ[Aib]EFI[dE][αMeY]LIK([AEEA-γGlu-Decanoyl(10-(4-HOOC-PhO))])GGPSSGAPPPS-NH2 [Example 379], the cAMP EC50 is 0.0167 nM in assay [1], over 9950 nM in assay [2] and 0.171 nM with hGLP-1R. Further, the cAMP Emax was determined as 97.5% in assay [1] and 104% in the assay with hGLP-1R. Moreover, the “cAMP EC50 (1.0% HSA)” value with human GIP receptor was 11.6 nM; in the assay with human glucagon receptor, over 9950 nM; in the assay with human GLP-1 receptor, 48.5 nM. In addition, the “cAMP Emax (1.0% HSA)” value in the assay with human GIP receptor was determined as 90%.

B1: Example 353 (peptide)
peptide: Y[Aib]EGT[αMePhe(2-F)]TSDV[Aib]I[αMeL]LD[Orn]K([AEEA-AEEA-γGlu-Decanoyl(10-(4-HOOC-PhO))])AQ[Aib][Om]FI[dE][αMeY]LIK([AEEA-AEEA-γGlu-Decanoyl(10-(4-HOOC-PhO))])GGPSSGAPPPS-NH2
modifications: reading uncertain; also: printed as Y-Aib-EGT-αMeF(2F)-TSDV-Aib-I-αMeL-LD-Orn-K((2-[2-(2-Amino-ethoxy)-ethoxy]-acetyl)2-(γ-Glu)-(10-(4-carboxyphenoxy)decanoyl))AQ-Aib-Om-FI-(D-Glu)-αMeY-LIK((2-[2-(2-Amino-ethoxy)-ethoxy]-acetyl)2-(γ-Glu)-(10-(4-carboxyphenoxy)decanoyl))GGPSSGAPPPS-NH2
For B1, the cAMP EC50 in assay [1] is 0.0249 nM; in assay [2] it was over 9950 nM; with hGLP-1R, 0.203 nM. Also, the figures for the cAMP Emax (in assay [1]; with hGLP-1R) were 98.2% and 98%, respectively. The “cAMP EC50 (1.0% HSA)” value with human GIP receptor was 5.35 nM; in the assay with human glucagon receptor, over 9950 nM; in the assay with human GLP-1 receptor it was 7.12 nM. For the same molecule, the results for the “cAMP Emax (1.0% HSA)” value with human GIP receptor and with human GLP-1 receptor were 84.8% and 92.5%, respectively.

B2: Example 359 (peptide)
peptide: YXEGTXTSDXXIXLDXKAQXEFIXXLIEGGPSSGAPPPSK
modifications: Y-Aib-EGT-αMeF(2F)-TSD-4Pal-Aib-I-αMeL-LD-Orn-K((2-[2-(2-Amino-ethoxy)-ethoxy]-acetyl)2-(γ-Glu)-CO-(CH2)12-CO2H)AQ-Aib-EFI-(D-Glu)-αMeY-LIEGGPSSGAPPPSK((2-[2-(2-Amino-ethoxy)-ethoxy]-acetyl)2-(γ-Glu)-CO-(CH2)12-CO2H)-NH2
B2: the cAMP EC50 in assay [1] was 0.0261 nM; in assay [2] it was over 10100 nM; with hGLP-1R it was 1.18 nM. For the same molecule, the cAMP Emax in assay [1] was 103%; with hGLP-1R, 104%. The “cAMP EC50 (1.0% HSA)” value is 1.58 nM with human GIP receptor, over 9950 nM in the assay with human glucagon receptor and 40.5 nM with human GLP-1 receptor. Moreover, the “cAMP Emax (1.0% HSA)” value with human GIP receptor turned out to be 81%; with human GLP-1 receptor, 95.1%.

B3: Example 374 (peptide)
peptide: YXEGTXTSDYXIXLDXKAQXEFIXXLIEGGPSSGAPPPSK
modifications: Y-Aib-EGT-αMeF(2F)-TSDY-Aib-I-αMeL-LD-Orn-K((2-[2-(2-Amino-ethoxy)-ethoxy]-acetyl)-(γ-Glu)-(10-(4-carboxyphenoxy)decanoyl))AQ-Aib-EFI-(D-Glu)-αMeY-LIEGGPSSGAPPPSK((2-[2-(2-Amino-ethoxy)-ethoxy]-acetyl)-(γ-Glu)-(10-(4-carboxyphenoxy)decanoyl))-NH2
As to B3, the cAMP EC50 in assay [1] is 0.0135 nM; in assay [2], over 9950 nM; with hGLP-1R, 0.269 nM. Also, the cAMP Emax in assay [1] worked out at 96.2%; with hGLP-1R it was 106%. Besides, the entries for the “cAMP EC50 (1.0% HSA)” value in the assay with human GIP receptor, with human glucagon receptor and with human GLP-1 receptor were 1.96 nM, over 9950 nM and 39.7 nM, respectively. The “cAMP Emax (1.0% HSA)” value in the assay with human GIP receptor turned out to be 88.8%.

B4: Example 377 (peptide)
peptide: YXEGTXTSDYXIXLDXIAQXKFIXXLIEGGPSSGAPPPSK
modifications: Y-Aib-EGT-αMeF(2F)-TSDY-Aib-I-αMeL-LD-Orn-IAQ-Aib-K((2-[2-(2-Amino-ethoxy)-ethoxy]-acetyl)-(γ-Glu)-(10-(4-carboxyphenoxy)decanoyl))FI-(D-Glu)-αMeY-LIEGGPSSGAPPPSK((2-[2-(2-Amino-ethoxy)-ethoxy]-acetyl)-(γ-Glu)-(10-(4-carboxyphenoxy)decanoyl))-NH2
Regarding B4, the cAMP EC50 is 0.0205 nM in assay [1], over 9950 nM in assay [2] and 0.356 nM in the assay with hGLP-1R. The cAMP Emax turned out to be 92.8% in assay [1] and 100% with hGLP-1R. Besides, the results for the “cAMP EC50 (1.0% HSA)” value in the assay with human GIP receptor, with human glucagon receptor and with human GLP-1 receptor were 17.5 nM, over 9950 nM and 178 nM, respectively. The “cAMP Emax (1.0% HSA)” value with human GIP receptor worked out at 79.4%; in the assay with human GLP-1 receptor, 110%.

B5: Example 362 (peptide)
peptide: YXEGTXTSDXXIXLDXKAQXEFIXXLIEGGPSSGAPPPSK
modifications: Y-Aib-EGT-αMeF(2F)-TSD-4Pal-Aib-I-αMeL-LD-Orn-K((2-[2-(2-Amino-ethoxy)-ethoxy]-acetyl)-(y-Glu)-(10-(4-carboxyphenoxy)decanoyl))AQ-Aib-EFI-(D-Glu)-αMeY-LIEGGPSSGAPPPSK((2-[2-(2-Amino-ethoxy)-ethoxy]-acetyl)-(γ-Glu)-(10-(4-carboxyphenoxy)decanoyl))-NH2
On to B5, for which the figures for the cAMP EC50 (in assay [1]; in assay [2]; with hGLP-1R) were 0.0131 nM, over 10100 nM and 0.34 nM, respectively. Also, in the assay with hGLP-1R, the cAMP Emax is 109%. Also, the results for the “cAMP EC50 (1.0% HSA)” value with human GIP receptor, with human glucagon receptor and with human GLP-1 receptor were 0.936 nM, over 9950 nM and 29.9 nM, respectively.

B6: Example 357 (peptide)
peptide: YXEGTXTSDXXIXLDXKAQXKFIXXLIEGGPSSGAPPPS
modifications: Y-Aib-EGT-αMeF(2F)-TSD-4Pal-Aib-I-αMeL-LD-Orn-K((2-[2-(2-Amino-ethoxy)-ethoxy]-acetyl)2-(γ-Glu)-CO-(CH2)12-CO2H)AQ-Aib-K((2-[2-(2-Amino-ethoxy)-ethoxy]-acetyl)2-(γ-Glu)-CO-(CH2)12-CO2H)FI-(D-Glu)-αMeY-LIEGGPSSGAPPPS-NH2
For the molecule B6, the values for the cAMP EC50 (in assay [1]; in assay [2]; with hGLP-1R) were 0.011 nM, over 10100 nM and 0.649 nM, respectively. Besides, the cAMP Emax stood at 99.9% in assay [1] and 107% with hGLP-1R. The “cAMP EC50 (1.0% HSA)” value in the assay with human GIP receptor was 1.19 nM; in the assay with human glucagon receptor, over 9950 nM; with human GLP-1 receptor, 36.2 nM. Further, the “cAMP Emax (1.0% HSA)” value in the assay with human GLP-1 receptor was 92.8%.

B7: Example 425 (peptide)
peptide: YXEGTXTSDKXIXLDXKAQXEFIXXLIEGGPSSGAPPPS
modifications: Y-Aib-EGT-αMeF(2F)-TSDK((2-[2-(2-Amino-ethoxy)-ethoxy]-acetyl)-(γ-Glu)-CO-(CH2)10-CH3)-Aib-I-αMeL-LD-Orn-K((2-[2-(2-Amino-ethoxy)-ethoxy]-acetyl)-(γ-Glu)-CO-(CH2)10-CH3)AQ-Aib-EFI-(D-Glu)-αMeY-LIEGGPSSGAPPPS-NH2
On to B7, for which the cAMP EC50 in assay [1] is 0.00943 nM; in assay [2], over 9950 nM; with hGLP-1R, 0.0965 nM. Besides, the results for the cAMP Emax (in assay [1]; with hGLP-1R) were 97.6% and 108%, respectively. Besides, the entries for the “cAMP EC50 (1.0% HSA)” value in the assay with human GIP receptor and with human glucagon receptor were 0.875 nM and over 9950 nM, respectively. Besides, the “cAMP Emax (1.0% HSA)” value with human GIP receptor came out at 89.9%.
